This data set in a line: yeast display, Sf9 membrane polyspecificity reagent, FACS + sequencing; frameworks hold sequencing errors. Put shortly:
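A nanobody's polyreactivity label depends on the gate it was sorted from. Yeast display cells were stained with 10% biotinylated, detergent-solubilized Sf9 membrane reagent for 1 hour at 4 °C, enriched on streptavidin microbeads and sorted by FACS. The low and high (top ~1%) gates were set on anti-HA fluorescence for expression and streptavidin fluorescence for reagent binding.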
For “QVQLVESGGGLVQAGGSLRLSCAASGRTFRYYAMGWYRQAPGKERELVAAIRRGGSTTYADSVKVRFTISRDNAKNTVYLQMNSLKPEDTAVYYCAARYPGTRGDGYWGQGTQVTVSS”, the “polyreactivity (PSR sort gate)” value was “high polyreactivity”.
In the case of “QVQLVESGGGLVQAGGSLRLSCAASGRTFRYYAMGWYRQAPGKERELVAAISRSGGSTYYAVSVKGRFTISRDNAKNTVYLQMNSLTPEVTAVYYCAARYYVPWFGPSKYTPYDYWGQGIQVTVSS” it was “high polyreactivity”.
For the sequence “QVQLVESGGGLVQAGGSLRLSCAASGRTFRYYAMGWYRQAPGKERELVAAITRGGRTNYADSVKGRFTISRDNAKNTVYLQMNSLKPEDTAVYYCAAVLYTPNKYASYYWGQGTQVTVSS”, the “polyreactivity (PSR sort gate)” value is listed as “high polyreactivity”.
For the sequence “QVQLVESGGGLVQAGGSLRLSCAASGRTFRYYDMGWYRQAPGKEREFVAAITWRGGSTYYADSVKGRFTISRDNAKNTVYLQMNSLKPEDTAVYYCATDSLRLYGGKRDLYYWGQGTQVTVSS”, the “polyreactivity (PSR sort gate)” value is given as “low polyreactivity”.
As for “QVQLVESGGGLVQAGGSLRLSCAASGRTFRYYSMGWYRQAPGKERELVAAISSRGNTYYADSVKGRFTISRDNAKNTVYLQMNSLKPEDTAVYYCAARNVVTGYRYDYWGHGTQVTVSS”, the “polyreactivity (PSR sort gate)” value is listed as “high polyreactivity”.
In the case of “QVQLVESGGGLVQAGGSLRLSCAASGRTFRYYTMGSYRPAPGKEREFVAAISSTGGTYYADSVKGRFTISRDNAKNTVYLQMNSLKPEDTAVYYCAKVYFWGALSPDKYDEDYWGQGTQVTVSS” it was “low polyreactivity”.
In the case of “QVQLVESGGGLVQAGGSLRLSCAASGRTFRYYTMGWYRQAPGKEREFVAAISSTGGTYYADSVKGRFTISRDNAKNTVYLQMNSLKPEDTAVYYCAAETEDWNEYNYWGQGTQVTVSS” it was “low polyreactivity”; in that of “QVQLVESGGGLVQAGGSLRLSCAASGRTFRYYTMGWYRQAPGKEREFVAAISSTGGTYYADSVKGRFTISRDNAKNTVYLQMNSLKPEDTAVYYCNATTSSNEYDSWGQGTQVTVSS”, “low polyreactivity”.
Take “QVQLVESGGGLVQAGGSLRLSCAASGRTFRYYTMGWYRQAPGKEREFVAALSSTGGTYYADSVKGRFTISRDNAKNTVYLQMNSLKPEDTADYYCNVSSLNSYTSGTTYWGVDYWGQGTQVTVSS”: the “polyreactivity (PSR sort gate)” value is “low polyreactivity”.
In the case of “QVQLVESGGGLVQAGGSLRLSCAASGRTFRYYTMGWYRQAPGKERELVAAITRNGGRTYYADSVKGRFTISRDNAKNTVYLQMNSLKPEDTAVYYCAAGTYDGGYHYDYWGQGTQVTVSS” it was “high polyreactivity”; in that of “QVQLVESGGGLVQAGGSLRLSCAASGRTFRYYTMGWYRQAPGKERELVAVISRSGGNTYYADSVKGRFTISRDNAKNTVYLQMNSLKPEDTAVYYCAAKIALDNDYWGQGTQVTVSS”, “high polyreactivity”.
With “QVQLVESGGGLVQAGGSLRLSCAASGRTFSANAMGWYRQAPGKERELVAAISSGGSTTYADSVKGRFTISRDNAKNTVYLQMNSLKPEDTAVYYCAAVWLSLFKGWVDTHEYDYWGQGTQVTVSS” the entry was “low polyreactivity”; with “QVQLVESGGGLVQAGGSLRLSCAASGRTFSANAMGWYRQAPGTEREGVATMTVRGGSTNYADSVKGRFTISRDNAKNTVYLQMNSLKPEDTAVYYCNAYVNSNVRWAYWGFDYCGQGTQVTVSS”, “high polyreactivity”; with “QVQLVESGGGLVQAGGSLRLSCAASGRTFSANTMGRYRQAPGKERELVAAITRGASTKYADSVKGRFTISRDNAKNTVYLPMNSLNPDDTAVYYCAAAVAYEYLQYAYTRYYYWGQGTQVTVSS”, “high polyreactivity”.
Regarding “QVQLVESGGGLVQAGGSLRLSCAASGRTFSAYAMGWYRQAPGKERELVAAISTNVGSTYYADSVKGRFTISRDTAKNTVYLQMNSLKPEDTAVYYCAKSWTLSGWNYYYWGQGTQVTVSS”, the “polyreactivity (PSR sort gate)” value was “high polyreactivity”.
In the case of “QVQLVESGGGLVQAGGSLRLSCAASGRTFSAYVMGWYRQAPGKEREFVATIRRTGSTYYADSVKGRFTISRDNAKNTVYLQMNSLKPEDTAVYYCNRGSFPSVQGSYPGYGYWGQGTQVTVSS” it was “high polyreactivity”.
With “QVQLVESGGGLVQAGGSLRLSCAASGRTFSFYAMGWYRQAPGKERELVAAIRSDGGTTYYADSVKGRFTISRDNAKNTVYLQMNSLKPEDTAVYYCNTQSFYFVSYSSSRYLRYYWGQGTQVTVSS” the entry was “low polyreactivity”; with “QVQLVESGGGLVQAGGSLRLSCAASGRTFSFYAMGWYRQAPGKERELVAAISRGGTTNYADSVKGRFTISRDNAKNTVYLQMNSLKPEDTAVYYCAASYFRRGFYSIYEYDYWGQGTQVTVSS”, “low polyreactivity”.
With “QVQLVESGGGLVQAGGSLRLSCAASGRTFSGYAKGGYRQAPGKERELVAAITSSGSSTYYADSVKGRFTISRDNAKNTVYLQMNSLKPEDTAVYYCAATPQAHSERYYYQRKYDYWGQGTQVTVSS” the entry was “low polyreactivity”.
As for “QVQLVESGGGLVQAGGSLRLSCAASGRTFSGYAMGGDIQAPGKERELVAAITARSGSTYYADSVKGRFTISRDNAKNTVYLLMNSLKPEDTAVYYCNAPRYAARFDYWGQGTQVTVSS”, the “polyreactivity (PSR sort gate)” value is “high polyreactivity”.
With “QVQLVESGGGLVQAGGSLRLSCAASGRTFSGYAMGWYRPAPGKERELVATISSGGRTNYADSVKGRFTISRDNAKNTVYLQMISLKPEDTAVYYCNVRWWGRGPWSDYWGQGTQVTVSS” the entry was “high polyreactivity”.
For the sequence “QVQLVESGGGLVQAGGSLRLSCAASGRTFSGYAMGWYRQAPGKERELVAAIRGGSTNYADSVKGRFTISRDNAKNTVYLQMNSLKPEDTAVYYCNAKRSWVWAGYDYWGQGTQVTVSS”, the “polyreactivity (PSR sort gate)” value is listed as “high polyreactivity”.
With “QVQLVESGGGLVQAGGSLRLSCAASGRTFSGYAMGWYRQAPGKERELVAAISNSGGNTYYADSVKGRFTISRDNAKNTVYLQMNSLKAEDTAVYYSAVDSSSPYDYWGQGTQVTVSS” the entry was “high polyreactivity”.
With “QVQLVESGGGLVQAGGSLRLSCAASGRTFSGYAMGWYRQAPGKERELVAAISSGGGSTYYADSVKGRFTISRDNAKNTVYLQMNSLKPEDTAVYYCAADGYPGDYDYWRQGTQVTVSS” the entry was “low polyreactivity”.
In the case of “QVQLVESGGGLVQAGGSLRLSCAASGRTFSGYAMGWYRQATGKERELVAAITRRGGTTYYADSVKGRFTISRDNAKNTVYLQMNSLKPEDTAVYYCAAAKPRVISQNIIYDYWGQGTQVTVSS” it was “high polyreactivity”; in that of “QVQLVESGGGLVQAGGSLRLSCAASGRTFSGYVMGWYRQAPGKERELVATINGSGASTYYADSVKGRFTISRDNAKNTVYLQMNSLKPEDTAVYYCNKYPAHYQTRRYDYWGQGTQVTVSS”, “high polyreactivity”.
Regarding “QVQLVESGGGLVQAGGSLRLSCAASGRTFSIYAMGWYRQAPGKERELVAAISNGGRTKYADSVKGRFTISRDNAKNTVYLQMNSLKPEDTAVYYCNALAYNVPRYDYWGQGTQVTVSS”, the “polyreactivity (PSR sort gate)” value is “high polyreactivity”.
Consider “QVQLVESGGGLVQAGGSLRLSCAASGRTFSIYAMGWYRQAPVKERELVAAISNGGRTKYADSVKGRFTISRDNAKNTVSLQMNSLKPEDTAVYYCAKRTYSRKFRGAYNYWGQGTQVTVSS”, for which the “polyreactivity (PSR sort gate)” value was “high polyreactivity”.
With “QVQLVESGGGLVQAGGSLRLSCAASGRTFSKYAMGWYRQAPGKERELVASISSDGRTYYADSVKGRFTISRDNAKNTVYLQMNRLKPEDTAVYYCAAKEWYFPTWYTYYERDYWGQGTQVTVSS” the entry was “high polyreactivity”; with “QVQLVESGGGLVQAGGSLRLSCAASGRTFSKYTMGWYRQATGKERELVAVISRSGTRTYYADSVKGRFTISRDNAKNTVYLQMNSLKREDTAVYYCAAKDERRSFGMGYWGQGTQVTVSS”, “high polyreactivity”.
In the case of “QVQLVESGGGLVQAGGSLRLSCAASGRTFSLYAMGWYRQAPGKERELVAGIDWSGGSTYYADSVKGRFTISRDNAKNTVYLQMNSLKPEDTAVYYCAAKYVWVSKASKDYDYWGQGTQVTVSS”, the “polyreactivity (PSR sort gate)” value is given as “low polyreactivity”.
“QVQLVESGGGLVQAGGSLRLSCAASGRTFSNNVMGWYRQAPGKERELVAAISGRGGRTYYADSVKGRFTISRDNAKNTVYLQMNSLKPEDTAVYYCAAGAYWPDEYWGQGTQVSVSS”: the “polyreactivity (PSR sort gate)” value is “high polyreactivity”.
In the case of “QVQLVESGGGLVQAGGSLRLSCAASGRTFSNYAMGWYRQAPGKERELVAAITGSGGSTYYADSVKGRFTISRDNAKNTVYLQLISLKPEDTAVYYCNAYRASKYLTGNGHDYWGQGTQVTVSS” it was “low polyreactivity”; in that of “QVQLVESGGGLVQAGGSLRLSCAASGRTFSNYAMGWYRQAPGKERELVAAITGSGGSTYYADSVKGRFTISRDNAKNTVYLQMHSLKPEDTAVYYCNAYRASKYLTGNGHDYWGQGTQVTVSS”, “low polyreactivity”.
Take “QVQLVESGGGLVQAGGSLRLSCAASGRTFSPYALGWSRKAPGKERELVAAITSRGSNTFYADSVKGRFTISRDNAKNTVYLQMNSLKPEDTAVYYCNKYTIVSRYDYWGQGTQVTVSS”: the “polyreactivity (PSR sort gate)” value is given as “high polyreactivity”.
“QVQLVESGGGLVQAGGSLRLSCAASGRTFSPYAMGWYRQAPGKERELVAAISWIGGSTYYADSVKGRFTISRDNAKNTVYLQMNSLKPEDTAVYYCAADKSVFSDSHAVSMIYRYDYWGQGTQVTVSS”: the “polyreactivity (PSR sort gate)” value is recorded as “low polyreactivity”.
For “QVQLVESGGGLVQAGGSLRLSCAASGRTFSPYAMGWYRQAPGKERELVAAITSRGASTYYADSVKGRFTISRDNAKNTVYLQINSLKPEDTAVYYCNSGRTYRRLGDYWGQGTQVTVSS”, the “polyreactivity (PSR sort gate)” value is listed as “high polyreactivity”.
On to “QVQLVESGGGLVQAGGSLRLSCAASGRTFSQYAMGWYRQAPGKERELVAAISRGGGSTYYADSVKGRFTISRDNAKNTVYLQMNSLKPEDTAVYYCARATYFYYPFGSWGQGTQVTVSS”, for which the “polyreactivity (PSR sort gate)” value is “high polyreactivity”.
Take “QVQLVESGGGLVQAGGSLRLSCAASGRTFSRNAMGWYRQAPGKEREFVASISRSGTSTYYADSVKGRFTISRDNAKNTVYLHMNSLKPEDTAVYYCAKTYASSQGYDYWGLGTQVTVSS”: the “polyreactivity (PSR sort gate)” value is “high polyreactivity”.
Turning to “QVQLVESGGGLVQAGGSLRLSCAASGRTFSRNAMGWYRQAPGKEREFVASISRSGTSTYYADSVKGRFTISRDNAKNTVYLQMNSLKPEDTAVYYCAKTYASSQGYDYWGQGTQVTVSS”, the “polyreactivity (PSR sort gate)” value was “high polyreactivity”.

(Values after the nanobody polyreactivity screen of Harvey et al. (2022).)
